The results in this text go back to publication doi:10.1101/2020.05.05.078014.

This data set deals with T1, Rhed (RNA-binding heme domain of DGCR8), heme-bound (Homo sapiens, UniProt Q8WYQ5 285-478).
T1 sequence: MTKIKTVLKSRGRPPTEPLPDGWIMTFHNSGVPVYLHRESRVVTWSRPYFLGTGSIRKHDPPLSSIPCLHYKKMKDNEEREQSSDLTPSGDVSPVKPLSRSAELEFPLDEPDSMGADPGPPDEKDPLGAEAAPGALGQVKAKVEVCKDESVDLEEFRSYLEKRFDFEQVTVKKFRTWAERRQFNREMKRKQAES
Kind of data set: EMSA. In general terms: In EMSA bound probe runs differently from free probe, usually more slowly.

In general, Kd refers to a measure of binding affinity in units of concentration. A low value points to higher affinity. Take GGAGACUGAUUGUCAUAUGUCGUUUGUGGGAUCCGUCUCC (structured_RNA) [pri-miR-340 apical stem-loop fragment]: binding was characterised by a dissociation constant (Kd) of 3.5 µM.
